B1: Protein Wnt-7a (Homo sapiens), O00755 (parent)
chain: MNRKARRCLGHLFLSLGMVYLRIGGFSSVVALGASIICNKIPGLAPRQRAICQSRPDAIIVIGEGSQMGLDECQFQFRNGRWNCSALGERTVFGKELKVGSREAAFTYAIIAAGVAHAITAACTQGNLSDCGCDKEKQGQYHRDEGWKWGGCSADIRYGIGFAKVFVDAREIKQNARTLMNLHNNEAGRKILEENMKLECKCHGVSGSCTTKTCWTTLPQFRELGYVLKDKYNEAVHVEPVRASRNKRPTFLKIKKPLSYRKPMDTDLVYIEKSPNYCEEDPVTGSVGTQGRACNKTAPQASGCDLMCCGRGYNTHQYARVWQCNCKFHWCCYVKCNTCSERTEMYTCK
partner: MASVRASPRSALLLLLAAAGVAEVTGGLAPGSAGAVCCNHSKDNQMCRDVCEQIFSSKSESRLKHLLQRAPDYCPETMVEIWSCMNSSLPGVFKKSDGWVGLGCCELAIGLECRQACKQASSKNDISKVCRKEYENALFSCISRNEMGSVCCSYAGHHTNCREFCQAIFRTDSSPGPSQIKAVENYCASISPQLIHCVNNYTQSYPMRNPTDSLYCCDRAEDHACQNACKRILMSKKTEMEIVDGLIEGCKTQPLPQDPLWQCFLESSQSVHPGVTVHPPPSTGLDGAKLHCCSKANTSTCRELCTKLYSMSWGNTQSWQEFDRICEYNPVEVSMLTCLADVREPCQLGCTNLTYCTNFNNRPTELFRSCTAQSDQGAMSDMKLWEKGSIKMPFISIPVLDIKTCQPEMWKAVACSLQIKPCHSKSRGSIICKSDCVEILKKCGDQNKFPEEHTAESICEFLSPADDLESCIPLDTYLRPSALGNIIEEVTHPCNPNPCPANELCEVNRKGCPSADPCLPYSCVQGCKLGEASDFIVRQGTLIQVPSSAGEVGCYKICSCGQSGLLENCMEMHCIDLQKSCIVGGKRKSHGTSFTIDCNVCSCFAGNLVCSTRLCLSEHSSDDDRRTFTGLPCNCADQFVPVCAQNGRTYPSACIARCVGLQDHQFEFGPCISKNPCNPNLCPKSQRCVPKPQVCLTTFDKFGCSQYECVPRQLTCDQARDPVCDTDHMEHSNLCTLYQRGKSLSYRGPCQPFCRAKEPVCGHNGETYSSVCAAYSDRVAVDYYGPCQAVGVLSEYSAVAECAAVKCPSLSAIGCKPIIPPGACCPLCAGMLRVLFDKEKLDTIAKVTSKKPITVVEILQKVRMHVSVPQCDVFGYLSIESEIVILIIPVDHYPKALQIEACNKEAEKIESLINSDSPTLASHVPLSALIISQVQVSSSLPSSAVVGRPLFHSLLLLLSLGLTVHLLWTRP

Variants of: B1
Details: with reck_mouse Reck

effect of a mutation on the interaction	Variant
disrupting interaction strength	V241A;F251A;L252A;K262A
